Experimental data published in IntAct's records for PubMed 29892012.

B1: Isoform 2 of Synaptoporin (Homo sapiens), Q8TBG9-2 (parent)
chain: MDPVSQLASAGTFRVLKEPLAFLRALELLFAIFAFATCGGYSGGLRLSVDCVNKTESNLSIDIAFAYPFRLHQVTFEVPTCEGKERQKLALIGDSSSSAEFFVTVAVFAFLYSLAATVVYIFFQNKYRENNRGPLIDFIVTVVFSFLWLVGSSAWAKGLSDVKVATDPKEVLLLMSACKQPSNKCMAIHSPVMSSLNTSVVFGFLNFILWAGNIWFVFKETGWHSSGQRYLSDPMEKHSSSYNQGGYNQDSYGSSSGYSQQASLGPTSDEFGQQPTGPTSFTNQI
B2: Coiled-coil alpha-helical rod protein 1 (Homo sapiens), Q8TD31 (parent)
chain: MFPPSGSTGLIPPSHFQARPLSTLPRMAPTWLSDIPLVQPPGHQDVSERRLDTQRPQVTMWERDVSSDRQEPGRRGRSWGLEGSQALSQQAEVIVRQLQELRRLEEEVRLLRETSLQQKMRLEAQAMELEALARAEKAGRAEAEGLRAALAGAEVVRKNLEEGSQRELEEVQRLHQEQLSSLTQAHEEALSSLTSKAEGLEKSLSSLETRRAGEAKELAEAQREAELLRKQLSKTQEDLEAQVTLVENLRKYVGEQVPSEVHSQTWELERQKLLETMQHLQEDRDSLHATAELLQVRVQSLTHILALQEEELTRKVQPSDSLEPEFTRKCQSLLNRWREKVFALMVQLKAQELEHSDSVKQLKGQVASLQEKVTSQSQEQAILQRSLQDKAAEVEVERMGAKGLQLELSRAQEARRRWQQQTASAEEQLRLVVNAVSSSQIWLETTMAKVEGAAAQLPSLNNRLSYAVRKVHTIRGLIARKLALAQLRQESCPLPPPVTDVSLELQQLREERNRLDAELQLSARLIQQEVGRAREQGEAERQQLSKVAQQLEQELQQTQESLASLGLQLEVARQGQQESTEEAASLRQELTQQQELYGQALQEKVAEVETRLREQLSDTERRLNEARREHAKAVVSLRQIQRRAAQEKERSQELRRLQEEARKEEGQRLARRLQELERDKNLMLATLQQEGLLSRYKQQRLLTVLPSLLDKKKSVVSSPRPPECSASAPVAAAVPTRESIKGSLSVLLDDLQDLSEAISKEEAVCQGDNLDRCSSSNPQMSS
partner: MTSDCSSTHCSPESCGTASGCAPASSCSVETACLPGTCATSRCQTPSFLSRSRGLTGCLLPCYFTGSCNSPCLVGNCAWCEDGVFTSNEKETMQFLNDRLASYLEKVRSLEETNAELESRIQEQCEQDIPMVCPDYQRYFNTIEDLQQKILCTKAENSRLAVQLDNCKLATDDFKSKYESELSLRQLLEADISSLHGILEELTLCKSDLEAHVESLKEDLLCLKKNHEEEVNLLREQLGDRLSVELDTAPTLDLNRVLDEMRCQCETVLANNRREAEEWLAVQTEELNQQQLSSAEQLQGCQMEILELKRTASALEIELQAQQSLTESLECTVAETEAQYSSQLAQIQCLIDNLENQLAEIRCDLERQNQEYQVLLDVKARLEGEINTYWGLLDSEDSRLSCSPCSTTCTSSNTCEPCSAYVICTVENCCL
B3: Centrosomal protein POC5 (Homo sapiens), Q8NA72 (parent)
chain: MSSDEEKYSLPVVQNDSSRGSSVSSNLQEEYEELLHYAIVTPNIEPCASQSSHPKGELVPDVRISTIHDILHSQGNNSEVRETAIEVGKGCDFHISSHSKTDESSPVLSPRKPSHPVMDFFSSHLLADSSSPATNSSHTDAHEILVSDFLVSDENLQKMENVLDLWSSGLKTNIISELSKWRLNFIDWHRMEMRKEKEKHAAHLKQLCNQINELKELQKTFEISIGRKDEVISSLSHAIGKQKEKIELMRTFFHWRIGHVRARQDVYEGKLADQYYQRTLLKKVWKVWRSVVQKQWKDVVERACQARAEEVCIQISNDYEAKVAMLSGALENAKAEIQRMQHEKEHFEDSMKKAFMRGVCALNLEAMTIFQNRNDAGIDSTNNKKEEYGPGVQGKEHSAHLDPSAPPMPLPVTSPLLPSPPAAVGGASATAVPSAASMTSTRAASASSVHVPVSALGAGSAATAASEEMYVPRVVTSAQQKAGRTITARITGRCDFASKNRISSSLAIMGVSPPMSSVVVEKHHPVTVQTIPQATAAKYPRTIHPESSTSASRSLGTRSAHTQSLTSVHSIKVVD
B4: Ras GTPase-activating protein-binding protein 2 (Homo sapiens), Q9UN86 (parent)
chain: MVMEKPSPLLVGREFVRQYYTLLNKAPEYLHRFYGRNSSYVHGGVDASGKPQEAVYGQNDIHHKVLSLNFSECHTKIRHVDAHATLSDGVVVQVMGLLSNSGQPERKFMQTFVLAPEGSVPNKFYVHNDMFRYEDEVFGDSEPELDEESEDEVEEEQEERQPSPEPVQENANSGYYEAHPVTNGIEEPLEESSHEPEPEPESETKTEELKPQVEEKNLEELEEKSTTPPPAEPVSLPQEPPKAFSWASVTSKNLPPSGTVSSSGIPPHVKAPVSQPRVEAKPEVQSQPPRVREQRPRERPGFPPRGPRPGRGDMEQNDSDNRRIIRYPDSHQLFVGNLPHDIDENELKEFFMSFGNVVELRINTKGVGGKLPNFGFVVFDDSEPVQRILIAKPIMFRGEVRLNVEEKKTRAARERETRGGGDDRRDIRRNDRGPGGPRGIVGGGMMRDRDGRGPPPRGGMAQKLGSGRGTGQMEGRFTGQRR
B5: Coiled-coil alpha-helical rod protein 1 (Homo sapiens), Q8TD31 (parent)
chain: B2 chain
partner: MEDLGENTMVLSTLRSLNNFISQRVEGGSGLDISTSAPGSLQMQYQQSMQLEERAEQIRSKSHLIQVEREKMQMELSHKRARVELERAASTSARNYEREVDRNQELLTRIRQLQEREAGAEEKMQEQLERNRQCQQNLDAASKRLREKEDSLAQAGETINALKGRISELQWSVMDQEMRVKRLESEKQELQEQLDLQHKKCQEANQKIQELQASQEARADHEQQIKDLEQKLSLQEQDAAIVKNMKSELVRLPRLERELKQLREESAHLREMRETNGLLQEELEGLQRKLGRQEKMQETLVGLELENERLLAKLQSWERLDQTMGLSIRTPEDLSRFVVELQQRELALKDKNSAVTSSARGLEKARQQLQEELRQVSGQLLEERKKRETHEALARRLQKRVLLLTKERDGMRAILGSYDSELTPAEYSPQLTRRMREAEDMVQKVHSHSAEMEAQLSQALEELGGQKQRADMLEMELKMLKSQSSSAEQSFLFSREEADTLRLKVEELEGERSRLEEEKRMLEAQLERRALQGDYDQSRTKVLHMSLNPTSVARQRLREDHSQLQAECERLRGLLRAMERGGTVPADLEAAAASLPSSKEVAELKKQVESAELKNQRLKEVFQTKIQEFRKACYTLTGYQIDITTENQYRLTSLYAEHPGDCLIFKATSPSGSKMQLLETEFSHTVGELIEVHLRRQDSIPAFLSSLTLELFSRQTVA
B6: Muscleblind-like protein 1 (Homo sapiens), Q9NR56 (parent)
chain: MAVSVTPIRDTKWLTLEVCREFQRGTCSRPDTECKFAHPSKSCQVENGRVIACFDSLKGRCSRENCKYLHPPPHLKTQLEINGRNNLIQQKNMAMLAQQMQLANAMMPGAPLQPVPMFSVAPSLATNASAAAFNPYLGPVSPSLVPAEILPTAPMLVTGNPGVPVPAAAAAAAQKLMRTDRLEVCREYQRGNCNRGENDCRFAHPADSTMIDTNDNTVTVCMDYIKGRCSREKCKYFHPPAHLQAKIKAAQYQVNQAAAAQAAATAAAMTQSAVKSLKRPLEATFDLGIPQAVLPPLPKRPALEKTNGATAVFNTGIFQYQQALANMQLQQHTAFLPPVPMVHGATPATVSAATTSATSVPFAATATANQIPIISAEHLTSHKYVTQM
partner: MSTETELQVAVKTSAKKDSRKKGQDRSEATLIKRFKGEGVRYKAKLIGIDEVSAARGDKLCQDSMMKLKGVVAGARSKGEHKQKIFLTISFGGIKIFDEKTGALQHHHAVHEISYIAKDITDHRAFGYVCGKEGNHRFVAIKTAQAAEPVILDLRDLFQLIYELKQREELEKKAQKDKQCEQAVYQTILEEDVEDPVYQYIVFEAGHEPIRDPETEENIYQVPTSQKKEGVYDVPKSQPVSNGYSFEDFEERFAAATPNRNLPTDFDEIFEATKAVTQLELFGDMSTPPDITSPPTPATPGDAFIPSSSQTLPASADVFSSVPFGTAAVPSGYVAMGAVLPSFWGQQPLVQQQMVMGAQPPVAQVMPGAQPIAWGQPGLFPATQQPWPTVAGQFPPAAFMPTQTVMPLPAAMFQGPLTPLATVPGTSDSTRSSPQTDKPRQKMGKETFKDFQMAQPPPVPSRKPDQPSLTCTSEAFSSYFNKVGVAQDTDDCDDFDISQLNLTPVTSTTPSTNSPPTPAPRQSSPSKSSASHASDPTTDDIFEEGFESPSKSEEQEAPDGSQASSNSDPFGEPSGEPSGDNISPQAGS
B7: Glucosamine-6-phosphate deaminase 2 (Homo sapiens), Q8TDQ7 (parent)
chain: MRLVILDNYDLASEWAAKYICNRIIQFKPGQDRYFTLGLPTGSTPLGCYKKLIEYHKNGHLSFKYVKTFNMDEYVGLPRNHPESYHSYMWNNFFKHIDIDPNNAHILDGNAADLQAECDAFENKIKEAGGIDLFVGGIGPDGHIAFNEPGSSLVSRTRLKTLAMDTILANAKYFDGDLSKVPTMALTVGVGTVMDAREVMILITGAHKAFALYKAIEEGVNHMWTVSAFQQHPRTIFVCDEDATLELRVKTVKYFKGLMHVHNKLVDPLFSMKDGN
partner: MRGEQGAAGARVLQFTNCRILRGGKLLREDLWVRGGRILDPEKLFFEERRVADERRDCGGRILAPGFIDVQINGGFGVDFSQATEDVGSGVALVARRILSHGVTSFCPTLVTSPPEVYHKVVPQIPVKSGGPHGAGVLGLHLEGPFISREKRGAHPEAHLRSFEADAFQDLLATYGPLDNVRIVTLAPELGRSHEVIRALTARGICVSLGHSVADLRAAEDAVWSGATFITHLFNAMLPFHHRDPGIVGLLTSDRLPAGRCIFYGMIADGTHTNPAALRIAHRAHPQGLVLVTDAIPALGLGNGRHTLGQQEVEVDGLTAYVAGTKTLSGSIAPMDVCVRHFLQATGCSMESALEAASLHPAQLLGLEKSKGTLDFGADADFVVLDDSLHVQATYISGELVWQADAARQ

Variants of: B1
Conditions: with creb3_human CREB3, O43889
Sequence of creb3_human CREB3, O43889 (O43889 whole entry): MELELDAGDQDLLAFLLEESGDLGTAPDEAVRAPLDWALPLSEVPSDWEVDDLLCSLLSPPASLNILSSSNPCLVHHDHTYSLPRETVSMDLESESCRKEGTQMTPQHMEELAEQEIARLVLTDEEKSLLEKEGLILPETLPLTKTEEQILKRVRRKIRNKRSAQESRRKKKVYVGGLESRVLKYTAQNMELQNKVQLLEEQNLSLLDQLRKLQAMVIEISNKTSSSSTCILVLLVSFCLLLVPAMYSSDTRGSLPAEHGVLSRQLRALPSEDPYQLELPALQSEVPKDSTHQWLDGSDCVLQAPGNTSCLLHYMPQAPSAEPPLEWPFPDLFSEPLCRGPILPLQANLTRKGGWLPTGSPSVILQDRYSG

Variant | effect of a mutation on the interaction
A115P | with no effect

Variants of: B2
Conditions: with KRT40, Q6A162

Variant | effect of a mutation on the interaction
W337R | with no effect

Variants of: B3
Conditions: with cetn1_human CETN1, Q12798
Sequence of cetn1_human CETN1, Q12798 (Q12798 whole entry): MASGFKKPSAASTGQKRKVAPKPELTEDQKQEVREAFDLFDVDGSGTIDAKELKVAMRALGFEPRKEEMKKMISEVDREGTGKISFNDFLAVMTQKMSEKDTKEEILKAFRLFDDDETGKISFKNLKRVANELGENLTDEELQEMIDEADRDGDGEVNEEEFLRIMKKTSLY

Variant | effect of a mutation on the interaction
M469T | with no effect

Variants of: B3
Conditions: with cetn2_human CETN2, P41208
Sequence of cetn2_human CETN2, P41208 (P41208 whole entry): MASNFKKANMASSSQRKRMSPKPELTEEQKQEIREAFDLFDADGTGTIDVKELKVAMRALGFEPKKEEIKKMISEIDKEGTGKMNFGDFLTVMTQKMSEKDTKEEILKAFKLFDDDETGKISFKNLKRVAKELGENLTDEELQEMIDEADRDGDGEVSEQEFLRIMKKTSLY

Variant | effect of a mutation on the interaction
M469T | with no effect

Variants of: B4
Conditions: with ubp10_human USP10, Q14694
Sequence of ubp10_human USP10, Q14694 (Q14694 whole entry): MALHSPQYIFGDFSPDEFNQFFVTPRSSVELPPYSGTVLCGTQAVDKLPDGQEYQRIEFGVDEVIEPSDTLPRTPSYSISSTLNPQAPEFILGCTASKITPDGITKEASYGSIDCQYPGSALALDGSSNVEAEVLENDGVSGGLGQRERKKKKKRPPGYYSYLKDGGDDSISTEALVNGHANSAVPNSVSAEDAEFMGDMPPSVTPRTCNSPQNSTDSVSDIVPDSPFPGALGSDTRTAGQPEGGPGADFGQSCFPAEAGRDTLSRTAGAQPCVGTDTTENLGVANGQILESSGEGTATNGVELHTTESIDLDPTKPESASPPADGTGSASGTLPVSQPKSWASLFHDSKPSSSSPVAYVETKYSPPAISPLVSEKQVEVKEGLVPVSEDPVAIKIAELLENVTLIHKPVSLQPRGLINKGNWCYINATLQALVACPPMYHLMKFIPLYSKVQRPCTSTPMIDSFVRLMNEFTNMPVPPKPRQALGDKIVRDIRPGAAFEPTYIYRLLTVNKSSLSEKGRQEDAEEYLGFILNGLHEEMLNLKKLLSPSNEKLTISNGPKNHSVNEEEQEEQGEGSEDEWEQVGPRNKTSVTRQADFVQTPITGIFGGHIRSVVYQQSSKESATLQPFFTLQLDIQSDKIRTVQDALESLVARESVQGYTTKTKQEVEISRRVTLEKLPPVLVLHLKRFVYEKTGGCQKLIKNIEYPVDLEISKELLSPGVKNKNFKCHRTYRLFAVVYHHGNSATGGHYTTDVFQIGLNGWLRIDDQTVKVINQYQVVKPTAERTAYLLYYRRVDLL

Variant | effect of a mutation on the interaction
L209P | with no effect

Variants of: B5
Conditions: with md1l1_human MAD1L1, Q9Y6D9

Variant | effect of a mutation on the interaction
W337R | disrupting interaction strength

Variants of: B6
Conditions: with dab1_human DAB1, O75553

Variant | effect of a mutation on the interaction
V45A | with no effect

Variants of: B7
Conditions: with naga_human AMDHD2, Q9Y303

Variant | effect of a mutation on the interaction
I216V | with no effect
